Source: patent US20160113911A1, “METHODS AND COMPOSITIONS FOR THE TREATMENT OF CANCER” (THE GENERAL HOSPITAL CORPORATION, priority 2013, published 2016)

Columns and labels:
H3K9me3 = experiment: H3K9 demethylase activity of KDM4 variants in transfected cells; format: cell-based; set-up: key: + indicates active; − indicates inactive; +/− indicates partial acitivty; details: KDM4A mutations
H3K36me3 = experiment: H3K36 demethylase activity of KDM4A variants in transfected cells (immunofluorescence); format: cell-based; set-up: key: + indicates active; − indicates inactive; +/− indicates partial acitivty; details: KDM4A mutations
Description: The indicated NHF-tagged KDM4A deletion constructs were transfected into RPE cells grown on coverslips in 10 cm dishes using X-tremeGENE 9™ DNA transfection reagent (Roche). H3K36me3 and subcellular localization were assayed by examining transfected cells (positive for HA staining; HA.11 Covance) following fixation in 3.7% PFA in PBS (Whetstine et al., 2006).
All immunofluorescence experiments were performed as in (Black et al., 2013). For the localization experiment a minimum of 50 cells were blinded and scored. For the catalytic activity, cells overexpressing a high level of KDM4A WT or SNP-A482 were analyzed in a non quantitative manner.

Row | Molecule | H3k9 Demethylase Activity (H3K9me3) | H3k36 Demethylase Activity (H3K36me3)
1 | 2A-V1003A: KDM4A mutation (protein) MASESETLNPSARIMTFYPTMEEFRNFSRYIAYIESQGAHRAGLAKVVPPKEWKPRASYDDIDDLVIPAPIQQLVTGQSGLFTQYNIQKKAMTVREFRKIANSDKYCTPRYSEFEELERKYWKNLTFNPPIYGADVNGTLYEKHVDEWNIGRLRTILDLVEKESGITIEGVNTPYLYFGMWKTSFAWHTEDMDLYSINYLHFGEPKSWYSVPPEHGKRLERLAKGFFPGSAQSCEAFLRHKMTLISPLMLKKYGIPFDKVTQEAGEFMITFPYGYHAGFNHGFNCAESTNFATRRWIEYGKQAVLCSCRKDMVKISMDVFVRKFQPERYKLWKAGKDNTVIDHTLPTPEAAEFLKESELPPRAGNEEECPEEDMEGVEDGEEGDLKTSLAKHRIGTKRHRVCLEIPQEVSQSELFPKEDLSSEQYEMTECPAALAPVRPTHSSVRQVEDGLTFPDYSDSTEVKFEELKNVKLEEEDEEEEQAAAALDLSVNPASVGGRLVFSGSKKKSSSSLGSGSSRDSISSDSETSEPLSCRAQGQTGVLTVHSYAKGDGRVTVGEPCTRKKGSAARSFSERELAEVADEYMFSLEENKKSKGRRQPLSKLPRHHPLVLQECVSDDETSEQLTPEEEAEETEAWAKPLSQLWQNRPPNFEAEKEFNETMAQQAPHCAVCMIFQTYHQVEFGGFNQNCGNASDLAPQKQRTKPLIPEMCFTSTGCSTDINLSTPYLEEDGTSILVSCKKCSVRVHASCYGVPPAKASEDWMCSRCSANALEEDCCLCSLRGGALQRANDDRWVHVSCAVAILEARFVNIAERSPVDVSKIPLPRFKLKCIFCKKRRKRTAGCCVQCSHGRCPTAFHVSCAQAAGVMMQPDDWPFVVFITCFRHKIPNLERAKGALQSITAGQKVISKHKNGRFYQCEVVRLTTETFYEVNFDDGSFSDNLYPEDIVSQDCLQFGPPAEGEVVQVRWTDGQVYGAKFVASHPIQMYQVEFEDGSQLVVKRDDAYTLDEELPKRVKSRLSVASDMRFNEIFTEKEVKQEKKRQRVINSRYREDYIEPALYRAIME | + | +
2 | 2A-D1023Y: KDM4A mutation (protein) MASESETLNPSARIMTFYPTMEEFRNFSRYIAYIESQGAHRAGLAKVVPPKEWKPRASYDDIDDLVIPAPIQQLVTGQSGLFTQYNIQKKAMTVREFRKIANSDKYCTPRYSEFEELERKYWKNLTFNPPIYGADVNGTLYEKHVDEWNIGRLRTILDLVEKESGITIEGVNTPYLYFGMWKTSFAWHTEDMDLYSINYLHFGEPKSWYSVPPEHGKRLERLAKGFFPGSAQSCEAFLRHKMTLISPLMLKKYGIPFDKVTQEAGEFMITFPYGYHAGFNHGFNCAESTNFATRRWIEYGKQAVLCSCRKDMVKISMDVFVRKFQPERYKLWKAGKDNTVIDHTLPTPEAAEFLKESELPPRAGNEEECPEEDMEGVEDGEEGDLKTSLAKHRIGTKRHRVCLEIPQEVSQSELFPKEDLSSEQYEMTECPAALAPVRPTHSSVRQVEDGLTFPDYSDSTEVKFEELKNVKLEEEDEEEEQAAAALDLSVNPASVGGRLVFSGSKKKSSSSLGSGSSRDSISSDSETSEPLSCRAQGQTGVLTVHSYAKGDGRVTVGEPCTRKKGSAARSFSERELAEVADEYMFSLEENKKSKGRRQPLSKLPRHHPLVLQECVSDDETSEQLTPEEEAEETEAWAKPLSQLWQNRPPNFEAEKEFNETMAQQAPHCAVCMIFQTYHQVEFGGFNQNCGNASDLAPQKQRTKPLIPEMCFTSTGCSTDINLSTPYLEEDGTSILVSCKKCSVRVHASCYGVPPAKASEDWMCSRCSANALEEDCCLCSLRGGALQRANDDRWVHVSCAVAILEARFVNIAERSPVDVSKIPLPRFKLKCIFCKKRRKRTAGCCVQCSHGRCPTAFHVSCAQAAGVMMQPDDWPFVVFITCFRHKIPNLERAKGALQSITAGQKVISKHKNGRFYQCEVVRLTTETFYEVNFDDGSFSDNLYPEDIVSQDCLQFGPPAEGEVVQVRWTDGQVYGAKFVASHPIQMYQVEFEDGSQLVVKRDDVYTLDEELPKRVKSRLSVASYMRFNEIFTEKEVKQEKKRQRVINSRYREDYIEPALYRAIME | + | +
3 | 2A-E23K: KDM4A mutation (protein) MASESETLNPSARIMTFYPTMEKFRNFSRYIAYIESQGAHRAGLAKVVPPKEWKPRASYDDIDDLVIPAPIQQLVTGQSGLFTQYNIQKKAMTVREFRKIANSDKYCTPRYSEFEELERKYWKNLTFNPPIYGADVNGTLYEKHVDEWNIGRLRTILDLVEKESGITIEGVNTPYLYFGMWKTSFAWHTEDMDLYSINYLHFGEPKSWYSVPPEHGKRLERLAKGFFPGSAQSCEAFLRHKMTLISPLMLKKYGIPFDKVTQEAGEFMITFPYGYHAGFNHGFNCAESTNFATRRWIEYGKQAVLCSCRKDMVKISMDVFVRKFQPERYKLWKAGKDNTVIDHTLPTPEAAEFLKESELPPRAGNEEECPEEDMEGVEDGEEGDLKTSLAKHRIGTKRHRVCLEIPQEVSQSELFPKEDLSSEQYEMTECPAALAPVRPTHSSVRQVEDGLTFPDYSDSTEVKFEELKNVKLEEEDEEEEQAAAALDLSVNPASVGGRLVFSGSKKKSSSSLGSGSSRDSISSDSETSEPLSCRAQGQTGVLTVHSYAKGDGRVTVGEPCTRKKGSAARSFSERELAEVADEYMFSLEENKKSKGRRQPLSKLPRHHPLVLQECVSDDETSEQLTPEEEAEETEAWAKPLSQLWQNRPPNFEAEKEFNETMAQQAPHCAVCMIFQTYHQVEFGGFNQNCGNASDLAPQKQRTKPLIPEMCFTSTGCSTDINLSTPYLEEDGTSILVSCKKCSVRVHASCYGVPPAKASEDWMCSRCSANALEEDCCLCSLRGGALQRANDDRWVHVSCAVAILEARFVNIAERSPVDVSKIPLPRFKLKCIFCKKRRKRTAGCCVQCSHGRCPTAFHVSCAQAAGVMMQPDDWPFVVFITCFRHKIPNLERAKGALQSITAGQKVISKHKNGRFYQCEVVRLTTETFYEVNFDDGSFSDNLYPEDIVSQDCLQFGPPAEGEVVQVRWTDGQVYGAKFVASHPIQMYQVEFEDGSQLVVKRDDVYTLDEELPKRVKSRLSVASDMRFNEIFTEKEVKQEKKRQRVINSRYREDYIEPALYRAIME | + | +
4 | 2A-E1032K: KDM4A mutation (protein) MASESETLNPSARIMTFYPTMEEFRNFSRYIAYIESQGAHRAGLAKVVPPKEWKPRASYDDIDDLVIPAPIQQLVTGQSGLFTQYNIQKKAMTVREFRKIANSDKYCTPRYSEFEELERKYWKNLTFNPPIYGADVNGTLYEKHVDEWNIGRLRTILDLVEKESGITIEGVNTPYLYFGMWKTSFAWHTEDMDLYSINYLHFGEPKSWYSVPPEHGKRLERLAKGFFPGSAQSCEAFLRHKMTLISPLMLKKYGIPFDKVTQEAGEFMITFPYGYHAGFNHGFNCAESTNFATRRWIEYGKQAVLCSCRKDMVKISMDVFVRKFQPERYKLWKAGKDNTVIDHTLPTPEAAEFLKESELPPRAGNEEECPEEDMEGVEDGEEGDLKTSLAKHRIGTKRHRVCLEIPQEVSQSELFPKEDLSSEQYEMTECPAALAPVRPTHSSVRQVEDGLTFPDYSDSTEVKFEELKNVKLEEEDEEEEQAAAALDLSVNPASVGGRLVFSGSKKKSSSSLGSGSSRDSISSDSETSEPLSCRAQGQTGVLTVHSYAKGDGRVTVGEPCTRKKGSAARSFSERELAEVADEYMFSLEENKKSKGRRQPLSKLPRHHPLVLQECVSDDETSEQLTPEEEAEETEAWAKPLSQLWQNRPPNFEAEKEFNETMAQQAPHCAVCMIFQTYHQVEFGGFNQNCGNASDLAPQKQRTKPLIPEMCFTSTGCSTDINLSTPYLEEDGTSILVSCKKCSVRVHASCYGVPPAKASEDWMCSRCSANALEEDCCLCSLRGGALQRANDDRWVHVSCAVAILEARFVNIAERSPVDVSKIPLPRFKLKCIFCKKRRKRTAGCCVQCSHGRCPTAFHVSCAQAAGVMMQPDDWPFVVFITCFRHKIPNLERAKGALQSITAGQKVISKHKNGRFYQCEVVRLTTETFYEVNFDDGSFSDNLYPEDIVSQDCLQFGPPAEGEVVQVRWTDGQVYGAKFVASHPIQMYQVEFEDGSQLVVKRDDVYTLDEELPKRVKSRLSVASDMRFNEIFTKKEVKQEKKRQRVINSRYREDYIEPALYRAIME | + | +
